{"source": "patent US20220112244A1", "about": "(DOMPE FARMACEUTICI S P A, published 2022)", "data": [{"molecular_target": "T1, IL-17A (agonist in the IL-17RA/IL17RC dimerization assay) (UniProt Q16552 24-155)", "T1 sequence (Q16552 24-155 limits assumed)": "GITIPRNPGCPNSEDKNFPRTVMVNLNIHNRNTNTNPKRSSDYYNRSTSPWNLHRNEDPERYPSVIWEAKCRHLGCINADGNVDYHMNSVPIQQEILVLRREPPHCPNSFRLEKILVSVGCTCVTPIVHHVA", "experiment": "cell-based or functional assay", "units": {"IC50 in IL-17RA/IL7RC dimerization assay": "nM"}, "values": [{"binder": "Ac-IHVTIPADLWDWINR-NH2", "note": "[peptide of SEQ ID NO: 10]", "IC50 in IL-17RA/IL7RC dimerization assay": "< 400"}, {"binder": "Ac-IHVTIPADLWDWINE-NH2", "note": "[peptide of SEQ ID NO: 12]", "IC50 in IL-17RA/IL7RC dimerization assay": "< 200"}, {"binder": "Ac-IHVTIPADLWDWVRR-NH2", "note": "[peptide of SEQ ID NO: 14]", "IC50 in IL-17RA/IL7RC dimerization assay": "< 400"}, {"binder": "Ac-VHVTIPADLWDWINK-NH2 (HAP with Ile 1 replaced by Val)", "note": "[peptide of SEQ ID NO: 2]", "IC50 in IL-17RA/IL7RC dimerization assay": "< 200"}, {"binder": "Ac-VMVTIPADLYEWIEEVPGAGVPGAG-NH2", "note": "[peptide of SEQ ID NO: 37]", "IC50 in IL-17RA/IL7RC dimerization assay": "< 200"}, {"binder": "Ac-VPGDGVMVTIPADLYEWIEE-NH2", "note": "[peptide of SEQ ID NO: 39]", "IC50 in IL-17RA/IL7RC dimerization assay": "< 200"}, {"binder": "Ac-VMVTIPADLWDWINK-NH2", "note": "[peptide of SEQ ID NO: 4]", "IC50 in IL-17RA/IL7RC dimerization assay": "< 100"}, {"binder": "Ac-VMVTIPADLYEWIEEVPGDG-NH2", "note": "[peptide of SEQ ID NO: 40]", "IC50 in IL-17RA/IL7RC dimerization assay": "< 200"}, {"binder": "Ac-IHVTIPADLWDWVNK-NH2", "note": "[peptide of SEQ ID NO: 8]", "IC50 in IL-17RA/IL7RC dimerization assay": "< 200"}, {"binder": "Ac-LHVTIPADLWDWINK-NH2", "note": "[peptide of SEQ ID NO: 160]", "IC50 in IL-17RA/IL7RC dimerization assay": "< 10000"}, {"binder": "Ac-PHVTIPADLWDWINK-NH2", "note": "[peptide of SEQ ID NO: 161]", "IC50 in IL-17RA/IL7RC dimerization assay": "< 10000"}, {"binder": "Ac-IRVTIPADLWDWINK-NH2", "note": "[peptide of SEQ ID NO: 162]", "IC50 in IL-17RA/IL7RC dimerization assay": "< 10000"}, {"binder": "Ac-IKVTIPADLWDWINK-NH2", "note": "[peptide of SEQ ID NO: 163]", "IC50 in IL-17RA/IL7RC dimerization assay": "< 10000"}]}, {"molecular_target": "T2, mouse IL-17A (mouse, UniProt Q62386 26-158)", "T2 construct": "also called mIL-17 Å; mIL17", "T2 sequence (looked up)": "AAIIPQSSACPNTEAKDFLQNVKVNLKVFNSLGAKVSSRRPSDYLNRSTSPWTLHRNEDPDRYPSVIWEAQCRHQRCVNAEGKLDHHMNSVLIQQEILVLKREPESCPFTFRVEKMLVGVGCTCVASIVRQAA", "experiment": "SPR on immobilised mouse IL-17A", "units": {"fold affinity against SEQ ID NO: 1": "fold"}, "values": [{"binder": "Ac-VHVTIPADLWDWINK-NH2 (HAP with Ile 1 replaced by Val)", "note": "[peptide of SEQ ID NO: 2]", "fold affinity against SEQ ID NO: 1": 28}]}, {"molecular_target": "T1, IL-17A (agonist in the IL-17RA/IL17RC …)", "experiment": "cell-based or functional assay", "remark": "another data set of the same source", "units": {"IC50, % inhibition of IL-17A-induced IL-17RA/IL17RC dimerization (PathHunter cytokine receptor assay)": "nM"}, "values": [{"binder": "Ac-IHVTIPADLWDWINR-NH2", "note": "[peptide of SEQ ID NO: 10]", "IC50, % inhibition of IL-17A-induced IL-17RA/IL17RC dimerization (PathHunter cytokine receptor assay)": 263}, {"binder": "Ac-IHVTIPADLWDWINE-NH2", "note": "[peptide of SEQ ID NO: 12]", "IC50, % inhibition of IL-17A-induced IL-17RA/IL17RC dimerization (PathHunter cytokine receptor assay)": 118}, {"binder": "Ac-IHVTIPADLWDWVRR-NH2", "note": "[peptide of SEQ ID NO: 14]", "IC50, % inhibition of IL-17A-induced IL-17RA/IL17RC dimerization (PathHunter cytokine receptor assay)": 380}, {"binder": "Ac-VHVTIPADLWDWINK-NH2 (HAP with Ile 1 replaced by Val)", "note": "[peptide of SEQ ID NO: 2]", "IC50, % inhibition of IL-17A-induced IL-17RA/IL17RC dimerization (PathHunter cytokine receptor assay)": 191}, {"binder": "Ac-VMVTIPADLYEWIEEVPGAGVPGAG-NH2", "note": "[peptide of SEQ ID NO: 37]", "IC50, % inhibition of IL-17A-induced IL-17RA/IL17RC dimerization (PathHunter cytokine receptor assay)": 188}, {"binder": "Ac-VPGDGVMVTIPADLYEWIEE-NH2", "note": "[peptide of SEQ ID NO: 39]", "IC50, % inhibition of IL-17A-induced IL-17RA/IL17RC dimerization (PathHunter cytokine receptor assay)": 158}, {"binder": "Ac-VMVTIPADLWDWINK-NH2", "note": "[peptide of SEQ ID NO: 4]", "IC50, % inhibition of IL-17A-induced IL-17RA/IL17RC dimerization (PathHunter cytokine receptor assay)": 203}, {"binder": "Ac-VMVTIPADLYEWIEEVPGDG-NH2", "note": "[peptide of SEQ ID NO: 40]", "IC50, % inhibition of IL-17A-induced IL-17RA/IL17RC dimerization (PathHunter cytokine receptor assay)": 240}, {"binder": "Ac-IHVTIPADLWDWVNK-NH2", "note": "[peptide of SEQ ID NO: 8]", "IC50, % inhibition of IL-17A-induced IL-17RA/IL17RC dimerization (PathHunter cytokine receptor assay)": 189}, {"binder": "Ac-IHVTIPADLYEWINK-NH2 (not fully specified)", "note": "[peptide of SEQ ID NO: 7]", "IC50, % inhibition of IL-17A-induced IL-17RA/IL17RC dimerization (PathHunter cytokine receptor assay)": 103}]}, {"molecular_target": "T2, mouse IL-17A", "experiment": "SPR, mouse IL-17A amine-coupled to the chip (3000 RU), peptide 62.5-1000 nM as analyte, Scatchard analysis of RU at equilibrium", "units": {"Kd": "nM"}, "values": [{"binder": "Ac-IHVTIPADLWDWINK-NH2", "note": "[High Affinity Peptide (HAP), peptide of SEQ ID NO: 1]", "Kd": 3700}, {"binder": "Ac-VHVTIPADLWDWINK-NH2 (HAP with Ile 1 replaced by Val)", "note": "[peptide of SEQ ID NO: 2]", "Kd": 130}]}]}
